Measured values as given in PMC9392796, “A mannose-sensing AraC-type transcriptional activator regulates cell–cell aggregation of Vibrio cholerae” (NPJ Biofilms and Microbiomes, 2022).

B1: MB2 WT (dsDNA)
DNA 1: CAAACCAATAGAGTTACAATCCTCTAGTGAATGTTTTAT
DNA 2: ATAAAACATTCACTAGAGGATTGTAACTCTATTGGTTTG
B2: MB1 WT (dsDNA)
DNA 1: AGACAGAATGATACAATAATCCAGTTTTAACACCAATTC
DNA 2: GAATTGGTGTTAAAACTGGATTATTGTATCATTCTGTCT

Key:
ManR (VC1825) [1] = target: T1, ManR (VC1825) (Vibrio cholerae, UniProt Q9KR22); conditions: 50 mM HEPES-NaOH pH 8.0, 500 mM NaCl, 10% glycerol, 1 mM TCEP, 0.5 mg/ml BSA, 0.05% Tween 20, 23 °C; NT-647-labelled protein 2 nM; effector (co-activator)
T1 construct: gene VC_1825

[2] = target: ManR (VC1825), AraC-type transcriptional regulator of Vibrio cholerae (Vibrio cholerae N16961); assay: not stated; Supplementary Fig. 3; method and conditions not shown
ManR (VC1825) [3] = target: ManR (VC1825) (Vibrio cholerae N16961, UniProt Q9KR22 1-279); assay: EMSA; one complex; conditions: protein: recombinant; chain copies: 2; blunt

| Molecule | Kd (ManR (VC1825) [1]) | binding result (ManR (VC1825) [3]) | also measured |
| --- | --- | --- | --- |
| O=P(O)(O)OCC1(O)O[C@H](CO)[C@@H](O)[C@@H]1O (some centres unmarked) [F1P, fructose 1-phosphate] | ~411 µM |  |  |
| O=P(O)(O)OC[C@H]1OC(O)[C@@H](O)[C@@H](O)[C@@H]1O (some centres unmarked) [M6P, mannose 6-phosphate] | ~0.152 µM |  |  |
| ManR (VC1825), AraC-type transcriptional regulator of Vibrio cholerae (natural protein) |  |  | stoichiometry N [2]: 2 |
| B1 |  | binds |  |
| B2 |  | binds |  |
